Results: patent US20230272445A1

Molecular target: purified active porcine pancreatic elastase (porcine) (UniProt P00772)
Experiment: cell-based or functional assay

UniProt P00772, sequence (P00772 27-266 limits assumed): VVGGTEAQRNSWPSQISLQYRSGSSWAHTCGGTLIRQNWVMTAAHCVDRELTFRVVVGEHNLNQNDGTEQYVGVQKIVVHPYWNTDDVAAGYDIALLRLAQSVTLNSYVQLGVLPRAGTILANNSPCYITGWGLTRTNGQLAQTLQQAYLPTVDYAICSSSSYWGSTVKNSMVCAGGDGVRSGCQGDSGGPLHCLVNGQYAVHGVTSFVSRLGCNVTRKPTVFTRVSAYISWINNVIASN

A1AT concentration at which a decrease in elastase activity was detected: > 0.1 µM
Substance: plasma-derived human alpha-1-antitrypsin (Prolastin-C) (from UniProt P01009 25-418)
